Consider five molecules from patent US20210139548A1 (published 2021).

*1 amine or outer side, *2 acyl side, *3 side chain or, on linkers, in order; H or OH if unused. Side-chain parts run from the residue outwards. The star is where a group is joined. C18 diacid = O=C(O)CCCCCCCCCCCCCCCCC(=O)*; γGlu = O=C(O)[C@H](CCC(=O)[*:2])N[*:1]; Isovaleryl = CC(C)CC(=O)*; AEEA = NCCOCCOCC(=O)O

T1: human neuropeptide Y2 receptor (human, UniProt P49146 1-381)
T1 construct: whole, on cells; also called hNPY2 receptor; hNPY2-R
T1 sequence (looked up): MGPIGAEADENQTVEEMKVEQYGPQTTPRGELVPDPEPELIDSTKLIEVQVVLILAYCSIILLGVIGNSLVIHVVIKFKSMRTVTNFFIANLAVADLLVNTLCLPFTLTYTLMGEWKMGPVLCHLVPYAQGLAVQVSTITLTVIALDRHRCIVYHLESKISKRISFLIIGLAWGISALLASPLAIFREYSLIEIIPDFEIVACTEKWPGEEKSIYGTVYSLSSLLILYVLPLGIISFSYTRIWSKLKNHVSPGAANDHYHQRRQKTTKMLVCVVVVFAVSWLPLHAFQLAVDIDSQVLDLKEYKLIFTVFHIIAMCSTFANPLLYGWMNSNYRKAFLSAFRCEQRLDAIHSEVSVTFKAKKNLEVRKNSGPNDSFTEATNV

B1: Compound 213 (peptide)
peptide: Isovaleryl-APEK([AEEA-AEEA-γGlu-C18 diacid])PEEETSPEELQRYYVSLRHYYNWLTRQRY-NH2
SMILES: CC(C)CC(=O)N[C@@H](C)C(=O)N1CCC[C@H]1C(=O)N[C@@H](CCC(=O)O)C(=O)N[C@@H](CCCCNC(=O)COCCOCCNC(=O)COCCOCCNC(=O)CC[C@H](NC(=O)CCCCCCCCCCCCCCCCC(=O)O)C(=O)O)C(=O)N1CCC[C@H]1C(=O)N[C@@H](CCC(=O)O)C(=O)N[C@@H](CCC(=O)O)C(=O)N[C@@H](CCC(=O)O)C(=O)N[C@H](C(=O)N[C@@H](CO)C(=O)N1CCC[C@H]1C(=O)N[C@@H](CCC(=O)O)C(=O)N[C@@H](CCC(=O)O)C(=O)N[C@@H](CC(C)C)C(=O)N[C@@H](CCC(N)=O)C(=O)N[C@@H](CCCNC(=N)N)C(=O)N[C@@H](Cc1ccc(O)cc1)C(=O)N[C@@H](Cc1ccc(O)cc1)C(=O)N[C@H](C(=O)N[C@@H](CO)C(=O)N[C@@H](CC(C)C)C(=O)N[C@@H](CCCNC(=N)N)C(=O)N[C@@H](Cc1c[nH]cn1)C(=O)N[C@@H](Cc1ccc(O)cc1)C(=O)N[C@@H](Cc1ccc(O)cc1)C(=O)N[C@@H](CC(N)=O)C(=O)N[C@@H](Cc1c[nH]c2ccccc12)C(=O)N[C@@H](CC(C)C)C(=O)N[C@H](C(=O)N[C@@H](CCCNC(=N)N)C(=O)N[C@@H](CCC(N)=O)C(=O)N[C@@H](CCCNC(=N)N)C(=O)N[C@@H](Cc1ccc(O)cc1)C(N)=O)[C@@H](C)O)C(C)C)[C@@H](C)O
B2: Compound 215 (peptide)
peptide: Isovaleryl-APEK([AEEA-AEEA-γGlu-C18 diacid])PEEDASPAELQRYYVELRHYYNWLTRQRY-NH2
SMILES: CC(C)CC(=O)N[C@@H](C)C(=O)N1CCC[C@H]1C(=O)N[C@@H](CCC(=O)O)C(=O)N[C@@H](CCCCNC(=O)COCCOCCNC(=O)COCCOCCNC(=O)CC[C@H](NC(=O)CCCCCCCCCCCCCCCCC(=O)O)C(=O)O)C(=O)N1CCC[C@H]1C(=O)N[C@@H](CCC(=O)O)C(=O)N[C@@H](CCC(=O)O)C(=O)N[C@@H](CC(=O)O)C(=O)N[C@@H](C)C(=O)N[C@@H](CO)C(=O)N1CCC[C@H]1C(=O)N[C@@H](C)C(=O)N[C@@H](CCC(=O)O)C(=O)N[C@@H](CC(C)C)C(=O)N[C@@H](CCC(N)=O)C(=O)N[C@@H](CCCNC(=N)N)C(=O)N[C@@H](Cc1ccc(O)cc1)C(=O)N[C@@H](Cc1ccc(O)cc1)C(=O)N[C@H](C(=O)N[C@@H](CCC(=O)O)C(=O)N[C@@H](CC(C)C)C(=O)N[C@@H](CCCNC(=N)N)C(=O)N[C@@H](Cc1c[nH]cn1)C(=O)N[C@@H](Cc1ccc(O)cc1)C(=O)N[C@@H](Cc1ccc(O)cc1)C(=O)N[C@@H](CC(N)=O)C(=O)N[C@@H](Cc1c[nH]c2ccccc12)C(=O)N[C@@H](CC(C)C)C(=O)N[C@H](C(=O)N[C@@H](CCCNC(=N)N)C(=O)N[C@@H](CCC(N)=O)C(=O)N[C@@H](CCCNC(=N)N)C(=O)N[C@@H](Cc1ccc(O)cc1)C(N)=O)[C@@H](C)O)C(C)C
B3: Compound 216 (peptide)
peptide: Isovaleryl-APAK([AEEA-AEEA-γGlu-C18 diacid])PEEDASPEELEQYYVSLRHYYNWLTRQRY-NH2
SMILES: CC(C)CC(=O)N[C@@H](C)C(=O)N1CCC[C@H]1C(=O)N[C@@H](C)C(=O)N[C@@H](CCCCNC(=O)COCCOCCNC(=O)COCCOCCNC(=O)CC[C@H](NC(=O)CCCCCCCCCCCCCCCCC(=O)O)C(=O)O)C(=O)N1CCC[C@H]1C(=O)N[C@@H](CCC(=O)O)C(=O)N[C@@H](CCC(=O)O)C(=O)N[C@@H](CC(=O)O)C(=O)N[C@@H](C)C(=O)N[C@@H](CO)C(=O)N1CCC[C@H]1C(=O)N[C@@H](CCC(=O)O)C(=O)N[C@@H](CCC(=O)O)C(=O)N[C@@H](CC(C)C)C(=O)N[C@@H](CCC(=O)O)C(=O)N[C@@H](CCC(N)=O)C(=O)N[C@@H](Cc1ccc(O)cc1)C(=O)N[C@@H](Cc1ccc(O)cc1)C(=O)N[C@H](C(=O)N[C@@H](CO)C(=O)N[C@@H](CC(C)C)C(=O)N[C@@H](CCCNC(=N)N)C(=O)N[C@@H](Cc1c[nH]cn1)C(=O)N[C@@H](Cc1ccc(O)cc1)C(=O)N[C@@H](Cc1ccc(O)cc1)C(=O)N[C@@H](CC(N)=O)C(=O)N[C@@H](Cc1c[nH]c2ccccc12)C(=O)N[C@@H](CC(C)C)C(=O)N[C@H](C(=O)N[C@@H](CCCNC(=N)N)C(=O)N[C@@H](CCC(N)=O)C(=O)N[C@@H](CCCNC(=N)N)C(=O)N[C@@H](Cc1ccc(O)cc1)C(N)=O)[C@@H](C)O)C(C)C
B4: Compound 219 (peptide)
peptide: Isovaleryl-APEK([AEEA-AEEA-γGlu-C18 diacid])PEEEAAPEELQRYYVSLRHYYNWLTRQRY-NH2
SMILES: CC(C)CC(=O)N[C@@H](C)C(=O)N1CCC[C@H]1C(=O)N[C@@H](CCC(=O)O)C(=O)N[C@@H](CCCCNC(=O)COCCOCCNC(=O)COCCOCCNC(=O)CC[C@H](NC(=O)CCCCCCCCCCCCCCCCC(=O)O)C(=O)O)C(=O)N1CCC[C@H]1C(=O)N[C@@H](CCC(=O)O)C(=O)N[C@@H](CCC(=O)O)C(=O)N[C@@H](CCC(=O)O)C(=O)N[C@@H](C)C(=O)N[C@@H](C)C(=O)N1CCC[C@H]1C(=O)N[C@@H](CCC(=O)O)C(=O)N[C@@H](CCC(=O)O)C(=O)N[C@@H](CC(C)C)C(=O)N[C@@H](CCC(N)=O)C(=O)N[C@@H](CCCNC(=N)N)C(=O)N[C@@H](Cc1ccc(O)cc1)C(=O)N[C@@H](Cc1ccc(O)cc1)C(=O)N[C@H](C(=O)N[C@@H](CO)C(=O)N[C@@H](CC(C)C)C(=O)N[C@@H](CCCNC(=N)N)C(=O)N[C@@H](Cc1c[nH]cn1)C(=O)N[C@@H](Cc1ccc(O)cc1)C(=O)N[C@@H](Cc1ccc(O)cc1)C(=O)N[C@@H](CC(N)=O)C(=O)N[C@@H](Cc1c[nH]c2ccccc12)C(=O)N[C@@H](CC(C)C)C(=O)N[C@H](C(=O)N[C@@H](CCCNC(=N)N)C(=O)N[C@@H](CCC(N)=O)C(=O)N[C@@H](CCCNC(=N)N)C(=O)N[C@@H](Cc1ccc(O)cc1)C(N)=O)[C@@H](C)O)C(C)C
B5: Compound 218 (peptide)
peptide: Isovaleryl-APEK([AEEA-AEEA-γGlu-C18 diacid])PEEDSSPEELQRYYVALRHYYNWLTRQRY-NH2
SMILES: CC(C)CC(=O)N[C@@H](C)C(=O)N1CCC[C@H]1C(=O)N[C@@H](CCC(=O)O)C(=O)N[C@@H](CCCCNC(=O)COCCOCCNC(=O)COCCOCCNC(=O)CC[C@H](NC(=O)CCCCCCCCCCCCCCCCC(=O)O)C(=O)O)C(=O)N1CCC[C@H]1C(=O)N[C@@H](CCC(=O)O)C(=O)N[C@@H](CCC(=O)O)C(=O)N[C@@H](CC(=O)O)C(=O)N[C@@H](CO)C(=O)N[C@@H](CO)C(=O)N1CCC[C@H]1C(=O)N[C@@H](CCC(=O)O)C(=O)N[C@@H](CCC(=O)O)C(=O)N[C@@H](CC(C)C)C(=O)N[C@@H](CCC(N)=O)C(=O)N[C@@H](CCCNC(=N)N)C(=O)N[C@@H](Cc1ccc(O)cc1)C(=O)N[C@@H](Cc1ccc(O)cc1)C(=O)N[C@H](C(=O)N[C@@H](C)C(=O)N[C@@H](CC(C)C)C(=O)N[C@@H](CCCNC(=N)N)C(=O)N[C@@H](Cc1c[nH]cn1)C(=O)N[C@@H](Cc1ccc(O)cc1)C(=O)N[C@@H](Cc1ccc(O)cc1)C(=O)N[C@@H](CC(N)=O)C(=O)N[C@@H](Cc1c[nH]c2ccccc12)C(=O)N[C@@H](CC(C)C)C(=O)N[C@H](C(=O)N[C@@H](CCCNC(=N)N)C(=O)N[C@@H](CCC(N)=O)C(=O)N[C@@H](CCCNC(=N)N)C(=O)N[C@@H](Cc1ccc(O)cc1)C(N)=O)[C@@H](C)O)C(C)C

The assay has as its target T1, human neuropeptide Y2 receptor. Kind of assay: radioligand competition (125I-PYY(1-36)), hNPY2R membranes. Summed up:
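Commercial human Y2 receptor membranes (0.5 μg protein/well) were incubated with peptide for 2 h at room temperature in 50 mM HEPES, 5 mM MgCl₂, 1 mM CaCl₂, pH 7.4, with 0.2% ovalbumin. Bound radioligand was separated on PEI-soaked GF/C filters and counted by scintillation, and IC₅₀ came from nonlinear sigmoidal regression.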
In general terms: In a radioligand displacement assay an active substance lowers the binding of a labelled ligand.
The term Ki denotes the dissociation constant of the complex between target and ligand, obtained from inhibition or displacement. In turn, B1 gave a Ki of 6.54 nM. For B2, the affinity, expressed as Ki, was 0.48 nM. The same measure for B3: 0.93 nM.

B4: the inhibition constant Ki worked out at 7.6 nM. The same measure for B5: 1.49 nM.
